Reference: patent US20120023600A1 (Novartis, published 2012)
Numbering of substitutions follows the chain as printed.

T1: DKK1-APP (human, UniProt O94907 32-266)
T1 sequence: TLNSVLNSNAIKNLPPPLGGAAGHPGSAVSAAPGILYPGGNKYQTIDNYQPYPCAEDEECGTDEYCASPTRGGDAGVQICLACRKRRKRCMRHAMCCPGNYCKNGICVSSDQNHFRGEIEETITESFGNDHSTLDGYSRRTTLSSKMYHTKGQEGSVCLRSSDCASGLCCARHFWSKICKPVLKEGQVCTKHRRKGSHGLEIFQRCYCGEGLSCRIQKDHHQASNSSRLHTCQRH

T2: recombinant human DKK1 (human, UniProt O94907 32-266)
T2 construct: also called Dickkopf-1; rhDKK1
T2 sequence: T1 sequence

T3: cynomolgus DKK1 (cynomolgus monkey (Macaca fascicularis), UniProt A0A7N9IE82 32-266)
T3 construct: also called cyno DKK1; monkey DKK1 (Novartis)
T3 sequence: T1 sequence with H114N, T150S, S166T

T4: mouse DKK1 (R&D Systems) (mouse, UniProt O54908 32-272)
T4 construct: Bought protein
T4 sequence (looked up): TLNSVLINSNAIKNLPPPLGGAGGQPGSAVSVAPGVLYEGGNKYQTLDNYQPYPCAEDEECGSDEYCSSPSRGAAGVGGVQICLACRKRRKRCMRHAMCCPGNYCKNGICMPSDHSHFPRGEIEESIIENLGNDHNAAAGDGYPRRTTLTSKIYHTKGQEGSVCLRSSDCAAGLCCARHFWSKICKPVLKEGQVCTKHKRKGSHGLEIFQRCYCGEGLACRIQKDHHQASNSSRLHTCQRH

T5: biotinylated human DKK1 (human, UniProt O94907 32-266, biotinylated (sites not given))
T5 construct: also called biotinylated DKK1; human recombinant, biotinylated DKK1
T5 sequence: T1 sequence

B1: MOR04946 (Fab, V domains shown)
VH: QVQLVESGGGLVQPGGSLRLSCAASGFTFNNYGMTWVRQAPGKGLEWVSGISGSGSYTYYADSVKGRFTISRDNSKNTLYLQMNSLRAEDTAVYYCARTIYMDYWGQGTLVTVSS
VL: DIVLTQSPATLSLSPGERATLSCRASQNLFSPYLAWYQQKPGQAPRLLIYGASNRATGVPARFSGSGSGTDFTLTISSLEPEDFAVYYCQQYLTLPLTFGQGTKVEIKR
B2: MOR04913 (Fab, V domains shown)
VH: B1 VH
VL: B1 VL with L93M, K108N
B3: MOR04952 (Fab, V domains shown)
VH: QVQLVESGGGLVQPGGSLRLSCAASGFTFSSYWMSWVRQAPGKGLEWVSVISSDSSSTYYADSVKGRFTISRDNSKNTLYLQMNSLRAEDTAVYYCARHGIDFDHWGQGTLVTVSS
VL: DIALTQPASVSGSPGQSITISCTGTSSDLGGYNYVSWYQQHPGKAPKLMIYDVNNRPSGVSNRFSGSKSGNTASLTISGLQAEDEADYYCQSYDSPTDSVVFGGGTKLTVLG
B4: MOR04920 (Fab, V domains shown)
VH: QVQLVESGGGLVQPGGSLRLSCAASGFTFSSYWMSWVRQAPGKGLEWVSSIEHKDAGYTTWYAAGVKGRFTISRDNSKNTLYLQMNSLRAEDTAVYYCARHGIDFDHWGQGTLVTVSS
VL: B3 VL with D94A, P96G, T97N, D98T, S99K
B5: MOR04910 (Fab, V domains shown)
VH: B3 VH with V50G, S53Y, D54S, S55G, S57N, Y59H, H99M, F103L, H105Y
VL: DIALTQPASVSGSPGQSITISCTGTSSDVGGFNYVSWYQQHPGKAPKLMIHDGSNRPSGVSNRFSGSKSGNTASLTISGLQAEDEADYYCQSWDVSPITAVFGGGTKLTVLG
notes: also called anti-DKK1 FAb MOR04910
B6: MOR04945 (Fab, V domains shown)
VH: B3 VH
VL: B3 VL with S92T, S95Q, P96I, T97K, D98L, V100A
B7: MOR04948 (Fab, V domains shown)
VH: B3 VH with V50G, S53Y, D54S, S55G, S57N, Y59H, H99M, F103L, H105Y
VL: DIALTQPASVSGSPGQSITISCTGTSSDVGGFNYVSWYQQHPGKAPKLMIHDGSNRPSGVSNRFSGSKSGNTASLTISGLQAEDEADYYCQTWDSLSFFVFGGGTKLTVLG
B8: MOR04456 (Fab, V domains shown)
VH: B1 VH
VL: B1 VL with V86T, L93G, T94D, L95E, L97I
notes: Fab with C-terminal FLAG and 6xHis tags
B9: MOR04470 (Fab, V domains shown)
VH: B3 VH
VL: B3 VL with D94A, P96G, T97N, D98T, S99K
notes: as for B8
B10: MOR04947 (Fab, V domains shown)
VH: QVQLVQSGAEVKKPGESLKISCKGSGYSFTNYYIGWVRQMPGKGLEWMGIIVPGTSYTIYSPSFQGQVTISADKSISTAYLQWSSLKASDTAMYYCARGIPFRMRGFDYWGQGTLVTVSS
VL: DIVLTQPPSVSGAPGQRVTISCSGSSSNIGSSFVNWYQQLPGTAPKLLIGNNSNRPSGVPDRFSGSKSGTSASLAITGLQSEDEADYYCASFDMGSPNVVFGGGTKLTVLG

These binders were tested against T1, DKK1-APP (assay: cell-based or functional assay).
For B1, the “Luciferase reporter assay w/o Kremen; Activity in 15% Human serum (%)” value (“Luciferase reporter assay w/o Kremen … (%)” for short) was 60%.
With B2 the “Luciferase reporter assay w/o Kremen … (%)” value was 88%.
In the case of B3, the “Luciferase reporter assay w/o Kremen … (%)” value is reported as 60%.
B4 was tested, and the “Luciferase reporter assay w/o Kremen … (%)” value was 75%.
For B5, the “Luciferase reporter assay w/o Kremen … (%)” value was 90%.
For B6, the “Luciferase reporter assay w/o Kremen … (%)” value was 74%.
In the case of B7, the “Luciferase reporter assay w/o Kremen … (%)” value is reported as 70%.

Each binder was assayed against T2, recombinant human DKK1 (assay: SPR (Biacore), DKK1 immobilised on CM5 chip, Fab as analyte).
Description: (§1) Using these clones, kinetic SPR analysis is performed on a. […] The Fab preparations are applied in concentration series of 16-500 nM at a flow rate of 20 μl/min. Association phase is set to 60 s and dissociation phase to 120 s.
B8 showed a Kd of 7.9 nM.
B9 was tested, and the Kd was 3.2 nM.

The binders below were run against T3, cynomolgus DKK1 in the same assay as above.
Description: as §1
With B8 the Kd was 8.1 nM.
For B9, the Kd was 1.7 nM.

The binders below were run against T4, mouse DKK1 (R&D Systems) in the same assay as above.
Description: as §1
With B8 the Kd was 11.6 nM.
Work on B9 yielded a Kd of 3.6 nM.

Target: T1, DKK1-APP
Test: cell-based or functional assay
Remark: another data set of the same source
B8 was tested, and the “EC50” value was 95 nM.
For B9, the “EC50” value was 58 nM.

What follows are binders tested against T2, recombinant human DKK1 (assay: solution equilibrium titration (SET), ECL (BioVeris), Fab).
Description: (§2) Electrochemiluminescence (ECL) based affinity determination in solution and data evaluation are basically performed as described by Haenel et al., 2005. […] Subsequently, the concentration of unbound Fab is quantified by ECL detection using the M-SERIES® 384 analyzer (BioVeris Europe).
(§3) Affinities are calculated according to Haenel et al., 2005 Anal Biochem 339.1:182-184.
Work on B1 yielded a Kd of 0.025 nM.
Work on B2 yielded a Kd of 0.038 nM.
In the case of B3, the Kd is reported as 0.1 nM.
With B4 the Kd was 0.053 nM.
B5 showed a Kd of 0.024 nM.
Binder B6 has a Kd of 0.069 nM.
B7 showed a Kd of 0.057 nM.
In the case of B10, the Kd is reported as 0.032 nM.

Each binder was assayed against T3, cynomolgus DKK1 in the same assay as above.
Description: as §2, §3
B1 showed a Kd of 0.036 nM.
With B2 the Kd was 0.051 nM.
B3 showed a Kd of 0.058 nM.
B4 gave a Kd of 0.05 nM.
In the case of B5, the Kd is reported as 0.037 nM.
B6 gave a Kd of 0.08 nM.
For B7, the Kd was 0.067 nM.
Binder B10 has a Kd of 0.058 nM.

What follows are binders tested against T4, mouse DKK1 (R&D Systems) in the same assay as above.
Description: as §2, §3
Work on B1 yielded a Kd of 0.041 nM.
Binder B2 has a Kd of 0.044 nM.
In the case of B3, the Kd is reported as 0.071 nM.
B4 gave a Kd of 0.04 nM.
B5 gave a Kd of 0.042 nM.
B6 was tested, and the Kd was 0.074 nM.
In the case of B7, the Kd is reported as 0.065 nM.
For B10, the Kd was 0.03 nM.

Target: T2, recombinant human DKK1
Test: SPR (Biacore), DKK1 immobilised on CM5 chip, Fab as analyte
Remark: another data set of the same source
Description: as §1
B8 showed a Kd of 7.9 nM.
B9 gave a Kd of 3.2 nM.

Target: T3, cynomolgus DKK1
Test: as above
Remark: another data set of the same source
Description: as §1
With B8 the Kd was 8.1 nM.
In the case of B9, the Kd is reported as 1.7 nM.

Target: T4, mouse DKK1 (R&D Systems)
Test: as above
Remark: another data set of the same source
Description: as §1
In the case of B8, the Kd is reported as 11.6 nM.
Work on B9 yielded a Kd of 3.6 nM.

The binders below were run against T5, biotinylated human DKK1 (assay: ELISA, biotinylated DKK1 on Neutravidin plates, Fab 1 ug/ml, anti-FLAG-AP detection).
Description: Binding specificity of the matured Fabs in the presence of 50% human serum (HS) is determined. […] After coating of the antigen, wells are blocked with TBS/0.05% Tween (TBS-T) supplemented with 1% BSA for 1 h at room temperature. Purified Fabs described above are diluted either in TBS/4% BSA or TBS/50% HS at a final concentration of 1 μg/ml, added to the coated and blocked wells and the plates are incubated for 1 h at room temperature. For detection, an anti-FLAG alkaline phosphatase (AP)-conjugated antibody (1:5000 dilution in TBST) and the fluorogenic substrate AttoPhos (Roche) are used. After each incubation, the wells of the microtiter plates are washed with TBST five times, except after the final incubation step with the labeled secondary antibody when wells are washed three times.
The fluorescence is measured in a TECAN Spectrafluor plate reader.
B1 was tested, and the “Binding activity w/50% Human serum vs 4% BSA (%)” value was 93%.
In the case of B2, the “Binding activity w/50% Human serum vs 4% BSA (%)” value is reported as 89%.
For B3, the “Binding activity w/50% Human serum vs 4% BSA (%)” value was 100%.
In the case of B4, the “Binding activity w/50% Human serum vs 4% BSA (%)” value is reported as 90%.
With B5 the “Binding activity w/50% Human serum vs 4% BSA (%)” value was 84%.
With B6 the “Binding activity w/50% Human serum vs 4% BSA (%)” value was 89%.
In the case of B7, the “Binding activity w/50% Human serum vs 4% BSA (%)” value is reported as 100%.

Target: T2, recombinant human DKK1
Test: SPR (Biacore), DKK1 immobilised on CM5 chip, Fab as analyte
Remark: another data set of the same source
Description: as §1
B8 showed a Kd of 7.9 nM.
B9 was tested, and the Kd was 3.2 nM.

Target: T3, cynomolgus DKK1
Test: as above
Remark: another data set of the same source
Description: as §1
In the case of B8, the Kd is reported as 8.1 nM.
In the case of B9, the Kd is reported as 1.7 nM.

Target: T4, mouse DKK1 (R&D Systems)
Test: as above
Remark: another data set of the same source
Description: as §1
For B8, the Kd was 11.6 nM.
B9 was tested, and the Kd was 3.6 nM.

The binders below were run against T2, recombinant human DKK1 (assay: cell-based or functional assay).
With B1 the “TCF/LEF luc assay w/Kremen: EC50” value was 0.2 nM.
For B2, the “TCF/LEF luc assay w/Kremen: EC50” value was 0.5 nM.
In the case of B3, the “TCF/LEF luc assay w/Kremen: EC50” value is reported as 0.6 nM.
For B4, the “TCF/LEF luc assay w/Kremen: EC50” value was 1.8 nM.
With B5 the “TCF/LEF luc assay w/Kremen: EC50” value was 0.3 nM.
With B6 the “TCF/LEF luc assay w/Kremen: EC50” value was 0.5 nM.
With B7 the “TCF/LEF luc assay w/Kremen: EC50” value was 0.5 nM.
B10 was tested, and the “TCF/LEF luc assay w/Kremen: EC50” value was 1.7 nM.

Target: T1, DKK1-APP
Test: cell-based or functional assay
Remark: another data set of the same source
B8 was tested, and the “Luciferase reporter assay; EC50” value was 95 nM.
In the case of B9, the “Luciferase reporter assay; EC50” value is reported as 58 nM.
